The results in this text go back to ChEMBL document CHEMBL2073913, “Functional multidrug resistance protein (MRP1) lacking the N-terminal transmembrane domain” (J Biol Chem, 1998).

In general, Km refers to the substrate concentration at which the rate is half of its maximum.

Substrate in the series: NC(CCC(=O)NC(CNCC(=O)O)CSCCN1C(=O)C=CC1=O)C(=O)O
The experiment in a line: TP_TRANSPORTER: uptake in membrane vesicles from MRP1-expressing Sf9 cells. The class given is functional, cell membranes, Membrane vesicle.

B1: Multidrug resistance-associated protein 1 (Homo sapiens) (protein)
chain: MALRGFCSADGSDPLWDWNVTWNTSNPDFTKCFQNTVLVWVPCFYLWACFPFYFLYLSRHDRGYIQMTPLNKTKTALGFLLWIVCWADLFYSFWERSRGIFLAPVFLVSPTLLGITMLLATFLIQLERRKGVQSSGIMLTFWLVALVCALAILRSKIMTALKEDAQVDLFRDITFYVYFSLLLIQLVLSCFSDRSPLFSETIHDPNPCPESSASFLSRITFWWITGLIVRGYRQPLEGSDLWSLNKEDTSEQVVPVLVKNWKKECAKTRKQPVKVVYSSKDPAQPKESSKVDANEEVEALIVKSPQKEWNPSLFKVLYKTFGPYFLMSFFFKAIHDLMMFSGPQILKLLIKFVNDTKAPDWQGYFYTVLLFVTACLQTLVLHQYFHICFVSGMRIKTAVIGAVYRKALVITNSARKSSTVGEIVNLMSVDAQRFMDLATYINMIWSAPLQVILALYLLWLNLGPSVLAGVAVMVLMVPVNAVMAMKTKTYQVAHMKSKDNRIKLMNEILNGIKVLKLYAWELAFKDKVLAIRQEELKVLKKSAYLSAVGTFTWVCTPFLVALCTFAVYVTIDENNILDAQTAFVSLALFNILRFPLNILPMVISSIVQASVSLKRLRIFLSHEELEPDSIERRPVKDGGGTNSITVRNATFTWARSDPPTLNGITFSIPEGALVAVVGQVGCGKSSLLSALLAEMDKVEGHVAIKGSVAYVPQQAWIQNDSLRENILFGCQLEEPYYRSVIQACALLPDLEILPSGDRTEIGEKGVNLSGGQKQRVSLARAVYSNADIYLFDDPLSAVDAHVGKHIFENVIGPKGMLKNKTRILVTHSMSYLPQVDVIIVMSGGKISEMGSYQELLARDGAFAEFLRTYASTEQEQDAEENGVTGVSGPGKEAKQMENGMLVTDSAGKQLQRQLSSSSSYSGDISRHHNSTAELQKAEAKKEETWKLMEADKAQTGQVKLSVYWDYMKAIGLFISFLSIFLFMCNHVSALASNYWLSLWTDDPIVNGTQEHTKVRLSVYGALGISQGIAVFGYSMAVSIGGILASRCLHVDLLHSILRSPMSFFERTPSGNLVNRFSKELDTVDSMIPEVIKMFMGSLFNVIGACIVILLATPIAAIIIPPLGLIYFFVQRFYVASSRQLKRLESVSRSPVYSHFNETLLGVSVIRAFEEQERFIHQSDLKVDENQKAYYPSIVANRWLAVRLECVGNCIVLFAALFAVISRHSLSAGLVGLSVSYSLQVTTYLNWLVRMSSEMETNIVAVERLKEYSETEKEAPWQIQETAPPSSWPQVGRVEFRNYCLRYREDLDFVLRHINVTINGGEKVGIVGRTGAGKSSLTLGLFRINESAEGEIIIDGINIAKIGLHDLRFKITIIPQDPVLFSGSLRMNLDPFSQYSDEEVWTSLELAHLKDFVSALPDKLDHECAEGGENLSVGQRQLVCLARALLRKTKILVLDEATAAVDLETDDLIQSTIRTQFEDCTVLTIAHRLNTIMDYTRVIVLDKGEIQEYGAPSDLLQQRGLFYSMAKDAGLV
Consider B1, for which the Michaelis constant (Km) came out at 155 µM.
